Entries after “also recorded” stand apart in the source; their conditions may differ.
Columns and labels:
rhAxl-Fc = molecular target: T1, rhAxl-Fc (Homo sapiens, UniProt P30530); assay: Biacore competitive binding study on rhAxl-Fc (two sample injection); conditions: for competition for Axl binding with control antibody MAB154 / inhibition of Gas6 binding to Axl: rhAxl saturated with antibody; for competition for Axl binding with control antibody MAB154: then MAB154 at 25 μg/mL; for inhibition of Gas6 binding to Axl: then rhGas6 or rmGas6 at 25 μg/mL; for blocking of binding of the other antibody (10C9 / 10G5) to Axl: rhAxl saturated with first antibody, second antibody at 25 μg/mL
T1 construct: Soluble recombinant antigens corresponding to the extracellular domains of members of the human TAM receptor family; purchased R&D Systems 154-AL
Description: A competitive binding study was performed using Biacore 3000 instrument (GE Healthcare) and Binding Analysis wizard with several cycles of two samples injection. As a first sample, a saturating concentration of MAb 10C9 (790 nM or 120 μg/mL) or 10G5 (160 nM or 24 μg/mL) was injected over the surface of a CM5 sensor chip coated with rhAxl-Fc (using amine coupling) for 3 min at flow rate of 30 μL/min followed by 2.5 min stabilization (HBS-EP buffer alone) before the injection of the second sample. The following second samples were used: recombinant human (rh) Gas6 (R&D Systems, Cat. no. 885-GS), recombinant mouse (rm) Gas6 (R&D Systems, Cat. no. 986-GS/CF) and a panel of anti-Axl antibodies, such as MAB154 (R&D Systems, Cat. no. MAB154), 10C9 and 10G5; all at concentration 25 μg/mL. The second sample was injected for 3 min, followed by 2.5 min stabilization (buffer alone) and regeneration of the surface by 30 sec injection of a regeneration solution (10 mM HCl, 1 M NaCl) at flow rate 50 μL/min.

MDA-MB-231 cells = assay: Treatment of established stellate-shaped 3D tumour masses; type: cell-based, human; conditions: MDA-MB-231, 72 hours, versus control IgG
Description: Effect of anti-Axl antibodies 10C9 and 10G5 on established 3D organotypic tumour masses. The developed 9-days old stellate-shaped 3D organoid masses of human mammary carcinoma cells (MDA-MB-231) were treated with either control IgG or anti-Axl antibodies 10C9 and 10G5 for 72 hours. Images were captured using bright field; arrows indicate apoptotic, degrading stellate-shaped cells.
MDA-MB-231 cells were grown on extracellular matrix and allowed to form the highly aggressive stellate shaped morphology. Stellate-shaped tumour masses were then treated with the control IgG and antibodies 10C9 and 10G5, as described in EXAMPLE 7.

Axl receptor protein = molecular target: T2, Axl receptor protein (Homo sapiens, UniProt P30530); assay: Western blot analysis of Axl receptor protein expression after antibody treatment; type: cell-based; conditions: MDA-MB-231 cells, 100 μg/mL, 20 hrs, versus irrelevant IgG or MAb#3
T2 construct: endogenous in cells; host or cells: MDA-MB-231
Description: Western blot analysis illustrating effect of treatment with either antibodies of multikinase inhibitor Foretinib on Axl receptor expression. Highly aggressive human mammary carcinoma cells MDA-MB-231 were treated with either antibodies (irrelevant IgG control and anti-Axl MAbs 10C9, 10G5 and MAb#3) or Foretinib for […] before loading on SDS-PAA gel. The levels of actin protein were used as loading controls.
The expression of Axl receptor protein in MBA-MD-231 cells treated with different antibodies was examined by Western blot analysis. The cells were seeded in a 6-well plate at density of 5×10^5 cells per well and cultured overnight before treatment initiation. The cells were treated for 20 hrs in the presence of isotype control (mouse IgG2b), anti-Axl antibodies (10C9, 10G5 and MAb#3) at concentrations of 100 μg/mL or multikinase inhibitor Foretinib (targets Met, Ron, Axl, Tie-2, and VEGFR2) at a concentration of 0.5 μM followed by harvesting by centrifugation at 1,200 rpm for 5 min and washing with sterile PBS. The cells were collected by centrifugation and resuspended in NP40-lysis buffer followed by 30 min incubation on ice. The cell lysates were cleared by centrifugation (12,000 rpm, 4° C., 5 min) and the protein concentrations were determined using BCA protein assay. […]

| Molecule | competition for Axl binding with control antibody MAB154 (rhAxl-Fc) | inhibition of Gas6 binding to Axl (rhAxl-Fc) | blocking of binding of the other antibody (10C9 / 10G5) to Axl (rhAxl-Fc) | effect on established stellate-shaped 3D tumour masses (MDA-MB-231 cells) | Axl protein level (Western blot) (Axl receptor protein) |
| --- | --- | --- | --- | --- | --- |
| 10G5: mouse anti-Axl monoclonal antibody from hybridoma WR-10G5-E5, IgG1; VH SEQ ID NO: 21, VL SEQ ID NO: 22 (antibody, listed as Mus musculus, V domains shown) VH: QVQLQQSGAELVRPGASVKLSCKASGYSFTDFYINWVRQRPGQGLEWIARIFPGGDNTYYNEKFKGKATLTAEESSSTAYIQLSSLTSEDSAVYFCARRGLYYAMDYWGQGISVTVSS VL: DVLMTQTPLSLPVSLGDQASISCRSSQSLVHSNGIPYLHWYLQKPGQSPKLLIYRVSNRFSGVPDRFSGSGSGTDFTLKISRVEAEDLGVYFCSQGTHVPPTFGGGTKLEIK | did not compete | inhibit the binding of Axl to its ligand Gas6; also recorded: inhibited Axl binding by its ligand Gas6 | blocked binding of each other | degradation of stellate patterns | significant reduction of Axl protein |
| 10C9: mouse anti-Axl monoclonal antibody from hybridoma UT-10C9-B9, IgG2b; VH SEQ ID NO: 3, VL SEQ ID NO: 4 (antibody, listed as Mus musculus, V domains shown) VH: QVQLQQPGPELVKPGASVKISCKTSDYNFTRYYIHWVKQRPGQGLEWIGWIYPGTGDSKYNEKFKGRATLTADTSSSTAYMQLSSQTSEDSAVYFCARNGNYWYFDVWGAGTAVTVSS VL: DIVMTQAAPSGPVTPGESVSISCRSSKSLLHSNGNTYLYWFLQRPGQSPQLLIYRMSNLASGVPDRFSGSGSGTAFTLRISRVEAEDVGIYYCMQHREYPFTFGGGTKLEIK | did no inhibit; also recorded: did not compete | inhibit the binding of Axl to its ligand Gas6; also recorded: cannot be bound; also recorded: inhibited Axl binding by its ligand Gas6 | cannot be bound; also recorded: blocked binding of each other | degradation of stellate patterns | significant reduction in the amount of Axl receptor protein |

Source: patent publication US10208121B2, “Anti-Axl antagonistic antibodies” (BERGEN TEKNOLOGIOVERFORING AS, priority 2014, dated 2019)
